Molecular target: T1, recombinant Aub with N-terminal His-, Myc- and 3xFLAG-tags (Drosophila, UniProt O76922 1-866)
T1 construct: Aubergine (Aub), Drosophila; aub cDNA cloned into pFastBac/NT-TOPO; also called FLAG-tagged Aub; Aubergine; source: Sf9 (bacmid from pFastBac/NT-TOPO), purified (anti-c-Myc beads, c-Myc peptide elution); not shown: Myc, N-terminal, kept; 3xFLAG, N-terminal, kept
T1 sequence (looked up): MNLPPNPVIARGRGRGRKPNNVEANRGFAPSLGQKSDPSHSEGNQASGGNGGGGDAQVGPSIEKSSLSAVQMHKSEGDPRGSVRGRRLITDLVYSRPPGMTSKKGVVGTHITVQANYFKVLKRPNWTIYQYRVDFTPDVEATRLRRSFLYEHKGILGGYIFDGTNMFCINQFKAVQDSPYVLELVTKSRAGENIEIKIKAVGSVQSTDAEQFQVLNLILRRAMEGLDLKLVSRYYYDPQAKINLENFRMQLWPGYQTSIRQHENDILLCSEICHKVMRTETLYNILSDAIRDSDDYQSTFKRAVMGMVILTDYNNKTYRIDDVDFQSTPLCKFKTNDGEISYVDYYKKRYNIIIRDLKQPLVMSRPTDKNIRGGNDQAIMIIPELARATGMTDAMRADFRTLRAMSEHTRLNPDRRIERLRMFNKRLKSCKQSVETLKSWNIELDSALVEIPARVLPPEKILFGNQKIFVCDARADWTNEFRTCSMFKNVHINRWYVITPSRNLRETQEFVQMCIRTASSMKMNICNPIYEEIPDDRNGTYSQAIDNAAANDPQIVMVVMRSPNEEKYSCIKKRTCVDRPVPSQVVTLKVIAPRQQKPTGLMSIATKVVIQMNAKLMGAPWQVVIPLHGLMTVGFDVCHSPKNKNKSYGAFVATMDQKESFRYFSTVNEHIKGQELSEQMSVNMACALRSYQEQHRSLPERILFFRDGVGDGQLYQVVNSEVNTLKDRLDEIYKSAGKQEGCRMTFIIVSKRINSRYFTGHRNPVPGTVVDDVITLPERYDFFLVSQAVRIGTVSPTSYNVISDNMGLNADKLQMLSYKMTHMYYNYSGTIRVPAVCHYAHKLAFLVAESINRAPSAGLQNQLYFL
Experiment: pull-down; purified FLAG-tagged Aub or FLAG-GFP control bound to anti-FLAG beads; purified Myc-eIF4A added in PBS, 0.05% IGEPAL CA-630, 4 °C, 60 min; western blot with anti-c-Myc
Settings: both partners purified

B1: Myc-tagged eIF4A (enzyme, Drosophila, UniProt Q02748 1-403, looked up)
chain: MDDRNEIPQDGPASMEPEGVIESTWHEVYDNFDDMNLREELLRGIYGYGFEKPSAIQQRAIIPCVRGRDVIAQAQSGTGKTATFSIAILQQIDTSIRECQALILAPTRELATQIQRVVMALGEYMKVHSHACIGGTNVREDARILESGCHVVVGTPGRVYDMINRKVLRTQYIKLFVLDEADEMLSRGFKDQIQDVFKMLPPDVQVILLSATMPPDVLEVSRCFMRDPVSILVKKEELTLEGIKQFYVNVKQENWKLGTLCDLYDTLSITQSVIFCNTRRKVDQLTQEMSIHNFTVSAMHGDMEQRDREVIMKQFRSGSSRVLITTDLLARGIDVQQVSLVINYDLPSNRENYIHRIGRGGRFGRKGVAINFITDDDRRILKDIEQFYHTTIEEMPANIADLI
notes: eukaryotic translation initiation factor 4A (eIF4A), ATP-dependent RNA helicase, Drosophila; also called Myc-eIF4A; eukaryotic translation initiation factor 4A; source: S2 cells, purified (anti-c-Myc beads, c-Myc peptide elution)
binding result: binds
